Test results taken from patent US20240190987A1, “Engineered EpCam Binding Antibodies” (TigaTX, priority 2021, published 2024).
Substitutions are numbered along the chain they refer to. Blank lines part the entries; values can stand above or below the binder they belong to.

Columns and labels:
[1] = molecular target: cyEpCAM ECD Ag0066 (cyno); assay: SPR multi-cycle
[2] = molecular target: T1, huEpCAM ECD Ag0065 (human) (UniProt P16422); assay: SPR multi-cycle
T1 sequence: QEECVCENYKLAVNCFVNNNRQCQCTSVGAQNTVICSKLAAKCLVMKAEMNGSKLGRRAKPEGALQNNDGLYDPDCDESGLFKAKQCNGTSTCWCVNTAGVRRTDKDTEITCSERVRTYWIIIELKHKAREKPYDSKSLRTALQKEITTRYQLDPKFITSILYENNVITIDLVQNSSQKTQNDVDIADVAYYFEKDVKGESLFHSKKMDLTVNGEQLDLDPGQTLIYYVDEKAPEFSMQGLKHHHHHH

[3] = molecular target: cyEpCAM ECD Ag0066 (cyno); assay: SPR single-cycle
[4] = molecular target: T1, huEpCAM ECD Ag0065 (human); assay: SPR single-cycle
Ab0670 = assay: 5-pt kinetics
Ab0785 = assay: BLI +indinavir
Ab0223 [5] = assay: BLI 3-pt +indinavir
Ab0786 [6] = assay: BLI 1-pt +indinavir
Ab0787 [7] = assay: BLI 1-pt +indinavir
Ab0786 [8] = assay: BLI 5-pt +indinavir
Ab0787 [9] = assay: BLI 5-pt +indinavir
Ab0223 [10] = assay: BLI 5-pt +indinavir
Ab0223 [11] = assay: BLI 5-pt +indinavir; remark: listed apart in the source

B2: Ab1024 (antibody, V domains shown)
VH: EVQLVESGGGLVQPGGSLRLSCAASGFTFSNYWMNWVRQAPGKGLEWVAQIRVKSENFATHYVDSVKGRFTISRDDSKSTVYLQMNSLRAEDTAVYYCTLYDGFSWGQGTLVTVSS
VL: DIQMTQSPSSLSASVGDRVTITCSASSSVSSGNFHWYQQKPGKAPKLLIYRTSNLASGVPSRFSGSGSGTDYTLTISSLQPEDFATYYCQQWSGYPYTFGQGTKVEIK
Kd [1]: 0.94 nM | Kd [2]: 1.6 nM | Kd [3]: 2 nM | Kd [4]: 2.3 nM

B4: Ab0788 (Fab, V domains shown)
VH: QVQLVQSGAEVKKPGASVKVSCKASGYTFTSYWMHWVRQHPGQGLEWMGIIHPNSGGTNYAQKFQGRVTMTRDTSTSTVYMELSSLRSEDTAVYYCAMGDYVSRDYWGQGTLVTVSS
VL: EIVLTQSPGTLSLSPGERATLSCRASSSVSSSYLHWYQQKPGQAPRLLIYSTSSRATGIPDRFSGSGSGTDFTLTISRLEPEDFAVYYCQQYSGYQFTFGQGTKLEIK
Kd (Ab0670): 86 nM

B7: Ab1044 (antibody, V domains shown)
VH: EVQLVESGGGLVQPGGSLRLSCAASGFDFSSYSIHWVRQAPGKGLEWVAAISPYYGSTYYADSVKGRFTISADTSKNTAYLQMNSLRAEDTAVYYCARYYEWYKYDLYAGSLGFDYWGQGTLVTVSS
VL: DIQMTQSPSSLSASVGDRVTITCRASQSVSSAVAWYQQKPGKAPKLLIYSASSLYSGVPSRFSGSRSGTDFTLTISSLQPEDFATYYCQQGGYSLITFGQGTKVEIK
Kd (Ab0786 [6]): 8.2 nM | Kd (Ab0787 [7]): 5.1 nM | Kd (Ab0786 [8]): 8.6 nM | Kd (Ab0787 [9]): 2.3 nM

B8: Ab1047 (antibody, V domains shown)
VH: B7 VH with Y59A, Y99A
VL: B7 VL
Kd (Ab0787 [7]): 47 nM

B9: Ab0637 (antibody, V domains shown)
VH: B7 VH with A50S, D106S, A109L
VL: B7 VL
Kd (Ab0223 [5]): 5.4 nM | Kd (Ab0223 [10]): 3.7 nM | Kd (Ab0223 [11]): 5.9 nM

B10: Ab0706 (antibody, V domains shown)
VH: B7 VH with A50S, D106S, Y108N, A109L
VL: B7 VL
Kd (Ab0223 [5]): 89 nM

Results, then the binder that gave them:

Kd [1]: 1.1 nM | Kd [2]: 1.8 nM | Kd [3]: 2 nM | Kd [4]: 2.5 nM
B1: Ab1019 (antibody, V domains shown)
VH: B2 VH with V63A, G103A
VL: B2 VL

Kd (Ab0670): 29 nM
B3: Ab0785 (Fab, V domains shown)
VH: B4 VH with N59S
VL: B4 VL
modifications: chain 1 pos 246: the Lys of the Avi-tag is biotinylated where biotinylated-Ab0785 was captured on streptavidin sensors; written K

Kd (Ab0785): 2.4 nM
B5: Ab1071 (Fab, V domains shown)
VH: B7 VH with A50S
VL: B7 VL

Kd (Ab0223 [5]): 72 nM
B6: Ab0707 (antibody, V domains shown)
VH: B7 VH with A50S, D106S, Y108D, A109L
VL: B7 VL
